Target: WDR5 (WD (Trp-Asp) repeat domain 5) (UniProt P61964)
Experiment: fluorescence polarisation

Substance	IC50 [nM]	Ki [nM]
ARF (peptide)	280000	–
AKA (peptide)	> 300000	> 65000
ARE (peptide)	> 100000	–
LRA (peptide)	10800	2300
ARC (peptide)	–	20
GRA (peptide)	77400	16700
ARL (peptide)	34000	7300

Results, then the substance that gave them:

IC50 [nM]	Ki [nM]	Substance
2900	–	TRA (peptide)
80	–	ART (peptide)
540	120	Ac-ARA-NH2 (peptide)
1830	400	CRA (peptide)
110	20	ARV (peptide)
1700	–	HRA (peptide)
1800	–	ARS (peptide)
3100	–	FRA (peptide)
240	50	VRA (peptide)
10300	2200	ARG (peptide)
2900	–	SRA (peptide)
